Results from US20220112288A1 (published 2022).

Assays:
[1] = biological target: T1, human CD4 on cells (SKW3 cells; human PBMCs) (human, UniProt P01730 26-458); assay: FACS confirmation, supernatant on human PBMCs, anti-mFc 647
T1 construct: whole, on cells; The SKW3 CD4 knockout cells served as the negative cell line; also called hCD4

[2] = biological target: T1, human CD4 on cells (SKW3 cells; human …); assay: FACS confirmation, supernatant on human PBMCs, anti-mFc 647, CD4+ gate
[3] = biological target: T1, human CD4 on cells (SKW3 cells; human …); assay: FACS confirmation, supernatant on SKW3 WT cells, anti-mFc 647; background gMFI 3300
[4] = biological target: T1, human CD4 on cells (SKW3 cells; human …); assay: FACS confirmation, supernatant on SKW3 WT cells, anti-hu Kappa FITC; background gMFI 2500
[5] = biological target: T1, human CD4 on cells (SKW3 cells; human …); assay: FACS primary screen, non-clonal supernatant; SKW3 vs SKW3 CD4 KO cells, anti-mouse Fc 647 detection
[6] = biological target: T1, human CD4 on cells (SKW3 cells; human …); assay: FACS binning on SKW3 cells after supernatant; competitor OKT4-A488; background 2163, max binding 8200
[7] = biological target: T1, human CD4 on cells (SKW3 cells; human …); assay: FACS primary screen, non-clonal supernatant; SKW3 vs SKW3 CD4 KO cells, anti-human Kappa FITC detection
[8] = biological target: T1, human CD4 on cells (SKW3 cells; human …); assay: FACS binning on SKW3 cells after supernatant; competitor RPA-T4-PE-Dazzle 594; background 783, max binding 15000
[9] = biological target: T2, huCD4-HIS (human, UniProt P01730 26-390, limits assumed); assay: ELISA binning, competitor Ibalizumab; 100 ng/mL huCD4-HIS, anti-HIS HRP detection; background 45, max binding 3000000
T2 construct: Named only in the head of the Ibalizumab ELISA binning column; Neither the source nor the construct limits are told in this stretch; not shown: HIS tag

[10] = biological target: T1, human CD4 on cells (SKW3 cells; human …); assay: FACS binning on SKW3 cells after supernatant; competitor OKT4a, anti-hu A647 secondary; background 5000, max binding 35000
[11] = biological target: T3, Recombinant human CD4 (R&D Systems, Cat. 10327-CD) (human, UniProt P01730 26-390, limits assumed); assay: BLI (Octet Red384); purified antibody captured on anti-mouse IgG Fc (AMC) sensors; human CD4 as analyte at 100, 50 and 25 nM; 1:1 global fit
T3 construct: Bought recombinant protein; also called huCD4

[12] = biological target: T4, Rhesus macaque CD4-HIS (Acro Biosystems, Cat. CD4-C52H7) (rhesus macaque, UniProt P16003 26-390); assay: BLI (Octet Red384); Ab on anti-mouse Fc (AMC) sensor; rhesus CD4-HIS as analyte
T4 construct: Bought reagent; also called Rhesus CD4; rhesus CD4-HIS; not shown: His tag

[13] = biological target: T5, Rhesus macaque CD4-HIS (Acro Biosystems, Cat. CD4-C52H7) (rhesus macaque, UniProt P16003 26-390); assay: BLI (Octet Red384); purified antibody captured on anti-mouse IgG Fc (AMC) sensors, rhesus CD4-HIS analyte at 100, 50, 25 nM; global 1:1 fit
T5 construct: Bought recombinant protein; also called Rhesus CD4; rhesus CD4-HIS; not shown: His tag

B1: 75110_01H18A (antibody, V domains shown)
VH: QVQLQQWGAGLLKPSETLSLTCAVYGGSFSGYYWSWIRQSPGKGLEWIGEINQSGSTNYNPSLKSRVTISVDTSKNQFSLKLSSVTAADTAVYYCARVINWFDSWGQGTLVTVSS
VL: DIQMTQSPSSVSASVGDRVTITCRASQGISSWLAWYQQKPGKAPKLLIYAASSFQSGVPSRFSGSGSGTDFTLTISSLQTEDFATYYCQQANSFPYTFGQGTRLEIK
notes: Tested as non-clonal hybridoma supernatant from AlivaMab Mouse Kappa mice, detected with anti-mouse Fc and anti-human Kappa
Q: For B1, which “PBMCs CD4+ percent bound of viable” value [1] is on record?
A: 32%

Q: And the “PBMCs CD4+ gate RL1 Binding” value [2]?
A: 263000

Q: What about the “gMFI, SKW3 WT anti-mFc 647” value [3] of the same binder?
A: 19000 gMFI

Q: What about the “gMFI, SKW3 WT anti-hu Kappa FITC” value [4] of the same binder?
A: 4930 gMFI

Q: And the “SKW3 WT vs KO, anti-mFc-647 (ratio)” value [5]?
A: 3.6 ratio

Q: What about the “OKT4 A488 signal (FACS binning)” value [6] of the same binder?
A: 9840

Q: What about the “SKW3 WT vs KO, anti-hKappa-FITC (ratio)” value [7] of the same binder?
A: 1.6 ratio

Q: And the “RPA-T4-PE-Dazzle 594 signal (FACS binning)” value [8]?
A: 2830

Q: And the “Ibalizumab ELISA binning signal” value [9]?
A: 385000

Q: And the “OKT4a anti-hu A647 signal (FACS binning)” value [10]?
A: 37200

B2: 75110_14P05A (antibody, V domains shown)
VH: EVQLVESGGGLVQPGGSLRLSCAASGFTFSSYDVHWVRQATGKGLEWVSTIGTAGDTYYPGSVKGRFTISRENAKNSLYLQMNSLRAGDTAVYYCARGGFYYYGMDVWGQGTTVTVSS
VL: EIVLTQSPGTLSLSPGERATLSCRASQSVSSSYLAWYQQKPGQTPRLLIYGASSRATGIPDRFSGSGSGTDFTLTISRLEPEDFAVFYCQQSGSSPFTFGPGTKVDVK
notes: Tested as AlivaMab Mouse (AMM) antibody purified from hybridoma supernatant and captured through its mouse IgG Fc; also called ADS75110 purified AMM Ab 75110_14P05A; Sib1.10
Q: Which results are given for B2?
A: Kd [11]: < 0.001 nM; koff [11]: < 1e-07 s⁻¹; kon [11]: 95000 M⁻¹ s⁻¹

B3: 75110_08H11A (antibody, V domains shown)
VH: EVQLVESGGGLVQPGGSLRLSCAASGFTFSSYDMHWVRQATGKGLEWVSTIGTAGDTYYPGSVKGRFTISRENAKNSLYLQMNSLRAGDTAVYYCARGGYSYYGMDVWGQGTTVTVSS
VL: EIVLTQSPGTLSLSPGERATLSCGASQSVSSTYLAWYQQKPGQAPRLLIYGASSRATGIPDRFSGSGSGTDFTLTISRLEPEDFAVYYCQQFGSSPFTFGPGTKVDIK
notes: Tested as antibody purified from AlivaMab Mouse hybridoma supernatant (human variable domains, kappa; mouse Fc, captured on anti-mouse IgG Fc sensors); also called ADS75110 purified AMM Ab
Q: Does B3 bind [12]?
A: no binding (tested: 100 nM (highest of 100, 50, 25 nM))

B4: 75110_08H06A (antibody, V domains shown)
VH: EVQLVESGGGLVQPGGSLRLSCAASGFTFSNYDMHWVRQATGKGLEWVSTIGTAGDTYYPGSVKGRFTISRENAKNSLYLQMNSLRAGDTAVYYCARGGYDYYGMDVWGQGTTVTVSS
VL: EIVLTQSPGTLSLSPGERATLSCRASQSITSIYLAWYRQKPGQAPRLLIYGASSRATGIPDRFSGSGSGTDFTLTISRLEPEDFAVYYCQQYGSSPFTFGPGTKVDIK
notes: as for B3
Q: Does B4 bind [12]?
A: no binding (tested: 100 nM (highest of 100, 50, 25 nM))

B5: 75110_14H13A (antibody, V domains shown)
VH: EVQLVESGGGLVQPGGSLRLSCAASGFTFSNYDMHWVRQATGKGLEWVSTIGTAGDTYYPGSVKGRFTISRKNAKNSLYLQMISLRAGDTAVYYCARGGDYYYGMDVWGQGTTVTVSS
VL: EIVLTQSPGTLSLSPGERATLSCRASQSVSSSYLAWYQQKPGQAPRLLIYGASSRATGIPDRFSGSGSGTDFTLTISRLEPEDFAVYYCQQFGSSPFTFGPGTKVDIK
notes: as for B3
Q: Does B5 bind [12]?
A: no binding (tested: 100 nM (highest of 100, 50, 25 nM))

B6: 75110_10K21A (antibody, V domains shown)
VH: EVQLVESGGGLVQPGGSLRLSCAASGFTFSSYWMTWVRQAPGKGLEWVANIKQDGSEKYYVDSVKGRFTISRDNAKNSLYLQMNSLRAEDTAVYYCVRDRYDALDIWGQGTMVTVSS
VL: AIQMTQSPSSLSASVGDRVTITCRASQGIRNDLNWYQQKPGKAPKLLIYAASSLQSGVPSRFSGSGSGTDFTLTISSLQAEDFATYYCLKDYNYPYTFGQGTKLEIK
notes: as for B1
Q: For B6, which “PBMCs CD4+ percent bound of viable” value [1] is on record?
A: 32%

Q: And the “PBMCs CD4+ gate RL1 Binding” value [2]?
A: 224000

Q: And the “gMFI, SKW3 WT anti-mFc 647” value [3]?
A: 19200 gMFI

Q: What about the “gMFI, SKW3 WT anti-hu Kappa FITC” value [4] of the same binder?
A: 5850 gMFI

Q: And the “SKW3 WT vs KO, anti-mFc-647 (ratio)” value [5]?
A: 2.6 ratio

Q: And the “OKT4 A488 signal (FACS binning)” value [6]?
A: 9980

Q: What about the “SKW3 WT vs KO, anti-hKappa-FITC (ratio)” value [7] of the same binder?
A: 1.7 ratio

Q: And the “RPA-T4-PE-Dazzle 594 signal (FACS binning)” value [8]?
A: 2590

Q: And the “Ibalizumab ELISA binning signal” value [9]?
A: 293000

Q: And the “OKT4a anti-hu A647 signal (FACS binning)” value [10]?
A: 34100

B7: 75110_14P08A (antibody, V domains shown)
VH: QVQLQESGPGLVKSSETLSLTCTDSGDSIRSYYWNWIRQPAGKGLEWIGRIYASGSTNYNPSLKSRVIMSADTSKNRFSLKLSSVTAADTAVYYCARDGGVGDSLDYWGQGTLVTVSS
VL: DIVMTQTPLSLPVTPGEPASISCRSSQSLLDSDDGNTYLDWYLQKPGQSPQLLIYTLSYRASGVPDRFSGSGSGTDFTLKISRVEAEDVGVYYCMQRIEFPFTFGPGTKVDIK
notes: Tested as AlivaMab Mouse (AMM) antibody purified from hybridoma supernatant and captured through its mouse IgG Fc; also called ADS75110 purified AMM Ab 75110_14P08A; Sib8.2
Q: What does the source list for B7?
A: Kd [11]: 0.33 nM; koff [11]: 3.2e-05 s⁻¹; kon [11]: 96000 M⁻¹ s⁻¹

B8: 75110_07J24A (antibody, V domains shown)
VH: QAQLQESGPGLVKPSETLSLTCTVSGGSISSYYYNWIRQPAGKGLEWIGRIYTSGRTDYNPSLKSRVTMSADTSKNQFSLKLSSVTAADTAVYYCARDEGPTDAFDIWGQGTMVTVSS
VL: DIVMTQTPLSLPVTPGEPASISCRSSQSLLDSDDGNTYLDWYLQKPGQSPHLLIYTLSYRASGVPDRFSGSGSGSDFTLKISRVEAEDVGVYYCMQRIEFPFTFGPGTKVDIK
notes: as for B3
Q: Does B8 bind [12]?
A: no binding (tested: 100 nM (highest of 100, 50, 25 nM))

B9: 75110_14P08A (antibody, V domains shown)
VH: QVQLQESGPGLVKSSETLSLTCTDSGDSIRSYYWNWIRQPAGKGLEWIGRIYASGSTNYNPSLKSRVIMSADTSKNRFSLKLSSVTAADTAVYYCARDGGVGDSLDYWGQGTLVTVSS
VL: DIVMTQTPLSLPVTPGEPASISCRSSQSLLDSDDGNTYLDWYLQKPGQSPQLLIYTLSYRASGVPDRFSGSGSGTDFTLKISRVEAEDVGVYYCMQRIEFPFTFGPGTKVDIK
notes: Tested as antibody purified from the AlivaMab Mouse hybridoma supernatant (chimeric AlivaMab; captured by anti-mouse IgG Fc sensors, human kappa light chain); also called ADS75110 purified AMM Ab 75110_14P08A; Sib8.2
Q: How did the Kd [13] turn out when B9 was run?
A: 8.8 nM

Q: And the koff [13]?
A: 0.00066 s⁻¹

Q: And the kon [13]?
A: 75000 M⁻¹ s⁻¹

B10: 75110_14G10A (antibody, V domains shown)
VH: EVQLVESGGGLVKPGGSLRLSCAASGFTFSSYSMNWVRQAPGKGLEWVSFISSSSSYIYYADSVKGRFTISRDNAKNSLYLQMNSLRAEDTAVYYCARERGDDYGDYEGAFDIWGQGTMVTVSS
VL: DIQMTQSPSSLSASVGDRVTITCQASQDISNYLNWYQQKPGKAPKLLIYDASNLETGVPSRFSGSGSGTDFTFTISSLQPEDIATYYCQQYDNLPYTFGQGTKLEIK
notes: as for B3
Q: Does B10 bind [12]?
A: no binding (tested: 100 nM (highest of 100, 50, 25 nM))
